Results published in the supplement of paper PMC10065799, “High-throughput profiling of sequence recognition by tyrosine kinases and SH2 domains using bacterial peptide display” (eLife, 2023).

The sequences below were run on AncSZ (assay: phosphorylation enrichment, bacterial display (enrichment ratio); higher = better substrate or ligand; peptides without Tyr show the background).
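Also: 11-residue human phosphosite peptides and single-mutation variants displayed on the E. coli surface, counted by deep sequencing, each peptide's frequency after selection divided by its frequency in the unselected input library; frequency after pTyr selection over input frequency; kinase dosed for 20-30% of maximal phosphorylation in three min.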

First: ADFPDYKFRPR [SOX11_Y116_YF]
Second: KLSFSYGQALQ [ALDOB_Y302_R304Q]
The phosphorylation enrichment of the first is higher: 1.07 for the first, 1 for the second.

Going from FSEVRYVKEPF [HIPK4_Y170_YF] to VIDGKYAFKPK [GTF2E2_Y137], the phosphorylation enrichment falls from 0.748 to 0.413.

Going from DIPIRYSITGV [CDH4_Y205] to VVKLAYNENDN [CAMKK2_Y183], the phosphorylation enrichment rises from 0.822 to 0.856.

Going from VQEDIYDEFVV [ALDH2_Y332_E337V] to IRKKYYRAILE [CHD7_Y1218_Q1214R], the phosphorylation enrichment falls from 1.55 to 0.529.

First: PMDGEYFTLQI [TP53_Y327_L323M]
Second: RKRQFYLFKGK [RSPO4_Y112_C107R_YF]
The phosphorylation enrichment of the first is higher: 4.04 for the first, 1.15 for the second.

Going from YSIAQYCCRMG [LRRK2_Y2023_G2019S] to TTEHIYGDNFF [UBA7_Y524], the phosphorylation enrichment falls from 1.24 to 0.776.

First: KVALLYKPYFY [POLE_Y100_P99L]
Second: AVLALHNSTRD [TGFB1_Y81_Y81H]
The phosphorylation enrichment of the first is higher: 0.987 for the first, 0.546 for the second.

First: PNQRRYVYYYS [PTEN_Y174_S170N]
Second: GFCSWYRGWAP [TIMP3_Y195_YF]
The phosphorylation enrichment of the first is higher: 2.88 for the first, 1.27 for the second.

Going from PFSEPYADFGG [APBA1_Y187_YF] to EREFKYDAHNF [OAT_Y50_G51D_YF], the phosphorylation enrichment falls from 1 to 0.915.

Compared with YLRTGYSVPYG [TGM1_Y370], YKGKNYKPLDL [RPL35_Y78_K77N] is lower in phosphorylation enrichment: 0.834 for the first, 0.423 for the second.

Compared with TEQDPYNNIDR [MMUT_Y364_V368D], LRLSSYSTTIR [CYP7B1_Y365] is higher in phosphorylation enrichment: 1.08 for the first, 1.41 for the second.

First: ANNPLYKEATP [ITGB3_Y773_S778P]
Second: VMAALYGRLYE [BTD_Y536_T532M]
The phosphorylation enrichment of the first is lower: 0.58 for the first, 0.795 for the second.

First: TNFRLYLRSLE [MTM1_Y71_YF]
Second: CITIHYNYMCN [TP53_Y234_T230I]
The phosphorylation enrichment of the first is higher: 1.37 for the first, 0.923 for the second.

Going from VVQGIYGYHHY [UFSP2_Y285] to VDASFYGGRGV [ANTXR2_Y381_YF], the phosphorylation enrichment falls from 0.923 to 0.561.

GEEIKYMLWLL [OTC_Y55_S60L] was tested, and the phosphorylation enrichment was 1.

What follows are sequences tested against EPHB1 (UniProt P54762) in the same assay as above.
EPHB1, sequence (P54762 whole entry, looked up): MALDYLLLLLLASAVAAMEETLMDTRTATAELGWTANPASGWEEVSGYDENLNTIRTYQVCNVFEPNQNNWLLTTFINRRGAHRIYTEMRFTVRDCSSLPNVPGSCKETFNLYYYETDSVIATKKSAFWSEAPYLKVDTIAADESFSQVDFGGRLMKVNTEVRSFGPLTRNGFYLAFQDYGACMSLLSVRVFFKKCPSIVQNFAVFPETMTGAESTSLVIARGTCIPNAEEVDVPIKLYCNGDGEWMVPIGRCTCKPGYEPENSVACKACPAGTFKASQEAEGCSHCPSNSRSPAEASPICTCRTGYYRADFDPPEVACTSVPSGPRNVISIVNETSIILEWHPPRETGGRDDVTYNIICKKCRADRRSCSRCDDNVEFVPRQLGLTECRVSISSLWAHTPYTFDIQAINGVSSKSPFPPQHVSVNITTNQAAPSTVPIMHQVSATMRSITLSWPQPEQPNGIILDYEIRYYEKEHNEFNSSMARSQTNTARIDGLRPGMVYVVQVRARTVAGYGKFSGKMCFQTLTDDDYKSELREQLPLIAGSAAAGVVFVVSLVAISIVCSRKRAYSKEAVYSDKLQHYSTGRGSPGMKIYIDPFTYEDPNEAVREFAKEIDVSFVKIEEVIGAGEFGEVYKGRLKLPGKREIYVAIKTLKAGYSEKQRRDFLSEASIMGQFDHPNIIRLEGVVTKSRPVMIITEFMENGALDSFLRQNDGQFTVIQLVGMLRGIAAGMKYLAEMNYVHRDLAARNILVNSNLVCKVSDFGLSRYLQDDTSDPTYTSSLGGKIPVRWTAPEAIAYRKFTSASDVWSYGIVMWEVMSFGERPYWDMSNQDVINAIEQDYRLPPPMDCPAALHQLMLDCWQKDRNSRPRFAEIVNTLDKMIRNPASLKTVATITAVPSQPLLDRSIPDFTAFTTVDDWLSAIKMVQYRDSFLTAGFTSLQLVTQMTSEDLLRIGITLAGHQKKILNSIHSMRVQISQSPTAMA

First: ADFPDYKFRPR [SOX11_Y116_YF]
Second: KLSFSYGQALQ [ALDOB_Y302_R304Q]
The phosphorylation enrichment of the first is lower: 0.378 for the first, 0.649 for the second.

Going from FSEVRYVKEPF [HIPK4_Y170_YF] to VIDGKYAFKPK [GTF2E2_Y137], the phosphorylation enrichment falls from 0.403 to 0.264.

First: DIPIRYSITGV [CDH4_Y205]
Second: VVKLAYNENDN [CAMKK2_Y183]
The phosphorylation enrichment of the first is lower: 0.391 for the first, 0.449 for the second.

First: VQEDIYDEFVV [ALDH2_Y332_E337V]
Second: IRKKYYRAILE [CHD7_Y1218_Q1214R]
The phosphorylation enrichment of the first is higher: 0.676 for the first, 0.388 for the second.

Compared with PMDGEYFTLQI [TP53_Y327_L323M], RKRQFYLFKGK [RSPO4_Y112_C107R_YF] is lower in phosphorylation enrichment: 1.5 for the first, 0.741 for the second.

Compared with YSIAQYCCRMG [LRRK2_Y2023_G2019S], TTEHIYGDNFF [UBA7_Y524] is lower in phosphorylation enrichment: 1.98 for the first, 0.458 for the second.

First: KVALLYKPYFY [POLE_Y100_P99L]
Second: AVLALHNSTRD [TGFB1_Y81_Y81H]
The phosphorylation enrichment of the first is higher: 0.605 for the first, 0.354 for the second.

Compared with PNQRRYVYYYS [PTEN_Y174_S170N], GFCSWYRGWAP [TIMP3_Y195_YF] is lower in phosphorylation enrichment: 1.07 for the first, 0.763 for the second.

Going from PFSEPYADFGG [APBA1_Y187_YF] to EREFKYDAHNF [OAT_Y50_G51D_YF], the phosphorylation enrichment rises from 0.543 to 0.624.

Compared with YLRTGYSVPYG [TGM1_Y370], YKGKNYKPLDL [RPL35_Y78_K77N] is lower in phosphorylation enrichment: 0.4 for the first, 0.277 for the second.

Compared with TEQDPYNNIDR [MMUT_Y364_V368D], LRLSSYSTTIR [CYP7B1_Y365] is higher in phosphorylation enrichment: 0.638 for the first, 0.674 for the second.

Going from ANNPLYKEATP [ITGB3_Y773_S778P] to VMAALYGRLYE [BTD_Y536_T532M], the phosphorylation enrichment rises from 0.45 to 0.961.

Going from TNFRLYLRSLE [MTM1_Y71_YF] to CITIHYNYMCN [TP53_Y234_T230I], the phosphorylation enrichment falls from 0.895 to 0.605.

First: VVQGIYGYHHY [UFSP2_Y285]
Second: VDASFYGGRGV [ANTXR2_Y381_YF]
The phosphorylation enrichment of the first is higher: 3.24 for the first, 0.396 for the second.

For GEEIKYMLWLL [OTC_Y55_S60L], the phosphorylation enrichment was 0.722.

What follows are sequences tested against EPHB2 (UniProt P29323) in the same assay as above.
EPHB2, sequence (P29323 whole entry, looked up): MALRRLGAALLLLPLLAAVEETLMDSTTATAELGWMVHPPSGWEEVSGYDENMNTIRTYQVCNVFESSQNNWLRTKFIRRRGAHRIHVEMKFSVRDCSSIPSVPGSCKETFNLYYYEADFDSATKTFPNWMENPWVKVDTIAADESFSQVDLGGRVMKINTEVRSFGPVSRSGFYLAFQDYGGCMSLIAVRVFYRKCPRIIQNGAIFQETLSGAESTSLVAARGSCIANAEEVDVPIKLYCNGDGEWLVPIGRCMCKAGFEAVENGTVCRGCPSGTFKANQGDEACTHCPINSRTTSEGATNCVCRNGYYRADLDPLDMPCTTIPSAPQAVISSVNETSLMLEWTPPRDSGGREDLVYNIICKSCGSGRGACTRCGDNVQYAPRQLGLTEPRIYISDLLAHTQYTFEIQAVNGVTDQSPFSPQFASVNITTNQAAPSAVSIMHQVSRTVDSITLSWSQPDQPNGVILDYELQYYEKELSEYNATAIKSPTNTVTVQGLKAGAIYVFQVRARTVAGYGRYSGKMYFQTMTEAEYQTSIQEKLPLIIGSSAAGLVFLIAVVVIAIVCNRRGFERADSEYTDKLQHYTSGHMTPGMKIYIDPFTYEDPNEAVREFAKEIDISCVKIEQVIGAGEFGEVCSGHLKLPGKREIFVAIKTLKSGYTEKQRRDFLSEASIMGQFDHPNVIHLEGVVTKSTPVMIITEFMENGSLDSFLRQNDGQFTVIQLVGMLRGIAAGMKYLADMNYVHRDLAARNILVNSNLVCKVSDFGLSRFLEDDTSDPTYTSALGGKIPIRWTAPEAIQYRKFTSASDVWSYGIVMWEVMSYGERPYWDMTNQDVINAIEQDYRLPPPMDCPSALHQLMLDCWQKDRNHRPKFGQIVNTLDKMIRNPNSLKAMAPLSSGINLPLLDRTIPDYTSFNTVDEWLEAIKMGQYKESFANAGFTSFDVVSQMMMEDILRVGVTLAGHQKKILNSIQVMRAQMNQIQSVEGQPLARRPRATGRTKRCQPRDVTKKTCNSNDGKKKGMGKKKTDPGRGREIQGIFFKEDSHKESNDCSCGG

Compared with ADFPDYKFRPR [SOX11_Y116_YF], KLSFSYGQALQ [ALDOB_Y302_R304Q] is higher in phosphorylation enrichment: 0.422 for the first, 0.564 for the second.

First: FSEVRYVKEPF [HIPK4_Y170_YF]
Second: VIDGKYAFKPK [GTF2E2_Y137]
The phosphorylation enrichment of the first is higher: 0.527 for the first, 0.304 for the second.

Compared with DIPIRYSITGV [CDH4_Y205], VVKLAYNENDN [CAMKK2_Y183] is higher in phosphorylation enrichment: 0.474 for the first, 0.55 for the second.

Compared with VQEDIYDEFVV [ALDH2_Y332_E337V], IRKKYYRAILE [CHD7_Y1218_Q1214R] is lower in phosphorylation enrichment: 0.827 for the first, 0.362 for the second.

Going from PMDGEYFTLQI [TP53_Y327_L323M] to RKRQFYLFKGK [RSPO4_Y112_C107R_YF], the phosphorylation enrichment falls from 0.753 to 0.71.

Compared with YSIAQYCCRMG [LRRK2_Y2023_G2019S], TTEHIYGDNFF [UBA7_Y524] is lower in phosphorylation enrichment: 12 for the first, 0.514 for the second.

First: KVALLYKPYFY [POLE_Y100_P99L]
Second: AVLALHNSTRD [TGFB1_Y81_Y81H]
The phosphorylation enrichment of the first is higher: 0.483 for the first, 0.323 for the second.

First: PNQRRYVYYYS [PTEN_Y174_S170N]
Second: GFCSWYRGWAP [TIMP3_Y195_YF]
The phosphorylation enrichment of the first is higher: 1.57 for the first, 0.597 for the second.

Going from PFSEPYADFGG [APBA1_Y187_YF] to EREFKYDAHNF [OAT_Y50_G51D_YF], the phosphorylation enrichment falls from 0.488 to 0.445.

First: YLRTGYSVPYG [TGM1_Y370]
Second: YKGKNYKPLDL [RPL35_Y78_K77N]
The phosphorylation enrichment of the first is higher: 0.534 for the first, 0.246 for the second.

Going from TEQDPYNNIDR [MMUT_Y364_V368D] to LRLSSYSTTIR [CYP7B1_Y365], the phosphorylation enrichment rises from 0.565 to 0.708.

First: ANNPLYKEATP [ITGB3_Y773_S778P]
Second: VMAALYGRLYE [BTD_Y536_T532M]
The phosphorylation enrichment of the first is lower: 0.533 for the first, 1.42 for the second.

First: TNFRLYLRSLE [MTM1_Y71_YF]
Second: CITIHYNYMCN [TP53_Y234_T230I]
The phosphorylation enrichment of the first is higher: 0.782 for the first, 0.515 for the second.

Compared with VVQGIYGYHHY [UFSP2_Y285], VDASFYGGRGV [ANTXR2_Y381_YF] is lower in phosphorylation enrichment: 8.76 for the first, 0.338 for the second.

For GEEIKYMLWLL [OTC_Y55_S60L], the phosphorylation enrichment was 0.554.

These sequences were tested against FGFR1 (UniProt P11362) in the same assay as above.
FGFR1, sequence (P11362 whole entry, looked up): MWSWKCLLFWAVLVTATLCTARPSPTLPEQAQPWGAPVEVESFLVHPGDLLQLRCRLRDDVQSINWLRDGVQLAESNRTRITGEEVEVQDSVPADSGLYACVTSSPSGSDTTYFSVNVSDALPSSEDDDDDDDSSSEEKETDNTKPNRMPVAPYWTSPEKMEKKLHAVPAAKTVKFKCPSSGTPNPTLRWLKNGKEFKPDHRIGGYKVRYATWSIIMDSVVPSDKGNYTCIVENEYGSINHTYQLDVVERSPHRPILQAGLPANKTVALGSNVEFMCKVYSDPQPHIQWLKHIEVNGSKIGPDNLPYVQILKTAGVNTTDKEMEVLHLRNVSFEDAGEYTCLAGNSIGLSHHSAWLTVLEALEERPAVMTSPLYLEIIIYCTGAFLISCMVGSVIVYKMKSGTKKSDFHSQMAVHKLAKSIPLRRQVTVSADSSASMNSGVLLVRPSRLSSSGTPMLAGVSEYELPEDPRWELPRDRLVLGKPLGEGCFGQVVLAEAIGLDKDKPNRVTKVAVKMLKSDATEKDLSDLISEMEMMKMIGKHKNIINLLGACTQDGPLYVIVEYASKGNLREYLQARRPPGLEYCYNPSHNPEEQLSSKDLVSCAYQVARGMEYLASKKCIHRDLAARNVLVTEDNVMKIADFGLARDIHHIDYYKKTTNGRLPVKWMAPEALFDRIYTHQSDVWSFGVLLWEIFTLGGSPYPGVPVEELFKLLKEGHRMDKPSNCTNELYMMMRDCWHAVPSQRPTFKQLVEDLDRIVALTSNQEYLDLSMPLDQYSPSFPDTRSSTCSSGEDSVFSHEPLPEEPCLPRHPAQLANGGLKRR

First: ADFPDYKFRPR [SOX11_Y116_YF]
Second: KLSFSYGQALQ [ALDOB_Y302_R304Q]
The phosphorylation enrichment of the first is lower: 0.455 for the first, 0.503 for the second.

Going from FSEVRYVKEPF [HIPK4_Y170_YF] to VIDGKYAFKPK [GTF2E2_Y137], the phosphorylation enrichment falls from 0.586 to 0.348.

First: DIPIRYSITGV [CDH4_Y205]
Second: VVKLAYNENDN [CAMKK2_Y183]
The phosphorylation enrichment of the first is lower: 0.444 for the first, 0.518 for the second.

First: VQEDIYDEFVV [ALDH2_Y332_E337V]
Second: IRKKYYRAILE [CHD7_Y1218_Q1214R]
The phosphorylation enrichment of the first is higher: 0.599 for the first, 0.423 for the second.

Going from PMDGEYFTLQI [TP53_Y327_L323M] to RKRQFYLFKGK [RSPO4_Y112_C107R_YF], the phosphorylation enrichment falls from 12 to 0.555.

First: YSIAQYCCRMG [LRRK2_Y2023_G2019S]
Second: TTEHIYGDNFF [UBA7_Y524]
The phosphorylation enrichment of the first is higher: 0.987 for the first, 0.417 for the second.

First: KVALLYKPYFY [POLE_Y100_P99L]
Second: AVLALHNSTRD [TGFB1_Y81_Y81H]
The phosphorylation enrichment of the first is higher: 0.483 for the first, 0.346 for the second.

Compared with PNQRRYVYYYS [PTEN_Y174_S170N], GFCSWYRGWAP [TIMP3_Y195_YF] is lower in phosphorylation enrichment: 3 for the first, 0.514 for the second.

Going from PFSEPYADFGG [APBA1_Y187_YF] to EREFKYDAHNF [OAT_Y50_G51D_YF], the phosphorylation enrichment falls from 1 to 0.643.

First: YLRTGYSVPYG [TGM1_Y370]
Second: YKGKNYKPLDL [RPL35_Y78_K77N]
The phosphorylation enrichment of the first is higher: 0.495 for the first, 0.32 for the second.

Going from TEQDPYNNIDR [MMUT_Y364_V368D] to LRLSSYSTTIR [CYP7B1_Y365], the phosphorylation enrichment falls from 0.728 to 0.655.

First: ANNPLYKEATP [ITGB3_Y773_S778P]
Second: VMAALYGRLYE [BTD_Y536_T532M]
The phosphorylation enrichment of the first is lower: 0.41 for the first, 0.468 for the second.

First: TNFRLYLRSLE [MTM1_Y71_YF]
Second: CITIHYNYMCN [TP53_Y234_T230I]
The phosphorylation enrichment of the first is higher: 0.538 for the first, 0.474 for the second.

Compared with VVQGIYGYHHY [UFSP2_Y285], VDASFYGGRGV [ANTXR2_Y381_YF] is lower in phosphorylation enrichment: 0.662 for the first, 0.32 for the second.

GEEIKYMLWLL [OTC_Y55_S60L] showed a phosphorylation enrichment of 0.752.
